Laboratory results from patent US20170152308A1.
Numbering of substitutions follows the chain as printed.

B1: NI-205.8F8 (antibody, human IgG1, V domains shown)
VH: EVQLLESGGGLVQPGGSLRLSCAASGYTFSYYAMSWVRQAPGKGLEWVSTIGDSGSTTHYADSVKGRFTISRDNSKSTLYLQMNSLRAEDTAVYYCAKGLGPVAAIGDYWGQGTLVTVSS
VL: QSVLTQPPSASGTPGQRVTISCSGSSSNIGSNNVYWYQQLPGTAPKLLVYRNNQRPSGVPDRVSGSKSGSSASLAISGLRSEDEADYYCAAWDDSLRGYVFGTGTKVTVL
B2: NI-205.21G1 (antibody, human IgG1, V domains shown)
VH: QVQLVESGGGVVQPGMSLRLSCAASGFSFSSHGMHWVRQTPGKGLEWLAVISYDASNKSYADSVKGRFTISRDNSKKTLYLQMDSLRVEDTALYYCANAFSSSASGGYWGQGTLVTVSS
VL: DVVMTQSPLSLPVTLGQPASISCRSSQSLVHSDGVTYLNWFQQRPGQSPRRLIYKVSNRDSGVPDRFSGSGSGTDFTLEISRVEAEDVGIYYCMQGTHWPPWTFGQGTKVEIK
B3: NI-205.58E11 (antibody, human IgG1, V domains shown)
VH: EVQLLESGGGLVQPGGSLRLSCAASGFTFSSYSMSWVRQAPGKGLEWVATVGYGGTIYYADSVKGRFTISRDNSKNTLYLEMNSLRAEATAVYYCAKANYGGNRFGLDVWGQGTTVTVSS
VL: QSALTQPPSASGSPGQSVTISCTGTSSDVGGYNYVSWYQHQPGKAPKLMIYEVSKRPSGVPDRFSGSKSGNTASLTVSGLQAEDEADYYCSSYAGSNNLGVFGTGTEVTVL
B4: NI-205.14H5 (antibody, human IgG1, V domains shown)
VH: EVQLLESGGGLVQPGGSLRLSCAASGFTFRNYAMAWVRQAPGKGLEWVSAIPARGDKTYYADSVRGRFTISRDISKSALYLQMNSLRVEDTAVYYCAKAHHLYNKNFDYWGQGTLVTVSS
VL: EIVLTQSPGTLSLSPGETVTLSCRASQSVSSSNLAWYQQKPGQAPRLLIYGASSRATGIPDRFSGRGSGTDFTLTISRLEPEDFAVYYCQHYGTFGQGTKVDIK
B5: NI-205.68G5 (antibody, human IgG1, V domains shown)
VH: QVQLVESGGGVVQPGRSLRLSCAASGFTFSSYGMHWVRQAPGKGLEWVAIIYYDSSQRYYADSVKGRFTISRDNSKNALYLQMNSLRAEDTALYYCARDLPFHYHRSASFAPSDTWGQGTLVTVSS
VL: EIVLTQSPGTLSLSPGERATLSCRASQAVTNNYLAWYQQKPGQAPRLLVYAASSRATGIPDRFYGSGSGADFTLTISRLEPEDFAVYYCQQYGTSPITFGQGTRLEIK
B6: NI-205.36D5 (antibody, human IgG1, V domains shown)
VH: B5 VH with G26R, I50L, S55A, S56T, R58K, N84T, E89D, L93V, F102Y, S113A
VL: B5 VL with A28T, V29I, T30S, A85V, T94S

biological target: synthetic peptide of residues 390-414 of TDP-43 with phosphorylation at residues 409/410 (human); assay: direct ELISA, coated antigen
Sequence (peptide, as listed by the source): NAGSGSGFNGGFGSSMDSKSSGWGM

Row | EC50 | Binder
1 | 5.1 nM | B1
2 | 49.5 nM | B2
3 | 6.9 nM | B3
4 | 0.9 nM | B4
5 | 16.9 nM | B5

biological target: synthetic peptide of residues 390-414 of TDP-43 with phosphorylation at residues 409/410 (human); assay: direct ELISA, coated antigen; direct ELISA, coated synthetic phospho-409/410 peptide 390-414 (3.3 ug/ml)

Row | EC50 | Binder
6 | 4.3 nM | B6
